In article PMC12354254:
Several values for one entry are separate records, joined by “and”; a condition that tells them apart may be missing. Identical values can stand only once.

Target: Brucella ovis PhyK (HWE-family histidine kinase, BOV_1602) (Brucella ovis)
Assay: SEC

Brucella ovis PhyK (HWE-family histidine kinase, BOV_1602) (enzyme)
stoichiometry N: 6 and 2
